Test results published in article PMC12440814.
Changes are numbered by the printed parent chain.

Columns and labels:
CtTrl1-LIG WT [1] = target: T1, CtTrl1-LIG WT (Chaetomium thermophilum, UniProt G0S6G2 1-414); test: X-ray crystallography
T1 sequence: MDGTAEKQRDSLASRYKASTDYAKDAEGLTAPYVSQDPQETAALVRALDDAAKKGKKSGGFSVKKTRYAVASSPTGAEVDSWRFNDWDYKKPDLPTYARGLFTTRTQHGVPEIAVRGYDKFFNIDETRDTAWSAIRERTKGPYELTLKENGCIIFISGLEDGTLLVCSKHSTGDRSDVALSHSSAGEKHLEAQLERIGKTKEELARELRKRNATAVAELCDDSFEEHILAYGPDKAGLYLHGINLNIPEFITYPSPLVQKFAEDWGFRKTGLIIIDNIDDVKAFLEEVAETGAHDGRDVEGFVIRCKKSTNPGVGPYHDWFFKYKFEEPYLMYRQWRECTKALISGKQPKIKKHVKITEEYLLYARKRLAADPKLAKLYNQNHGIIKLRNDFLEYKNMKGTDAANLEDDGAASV

CtTrl1-LIG WT [2] = target: T1, CtTrl1-LIG WT; test: EMSA
CtTrl1-LIG S171A = target: T2, CtTrl1-LIG S171A (Chaetomium thermophilum, UniProt G0S6G2 1-414, S171A); test: EMSA
T2 sequence: T1 sequence with S171A

CtTrl1-LIG H170A = target: T3, CtTrl1-LIG H170A (Chaetomium thermophilum, UniProt G0S6G2 1-414, H170A); test: EMSA
T3 sequence: T1 sequence with H170A

CtTrl1-LIG K148N = target: T4, CtTrl1-LIG K148N (Chaetomium thermophilum, UniProt G0S6G2 1-414, K148N); test: EMSA
T4 sequence: T1 sequence with K148N

CtTrl1-LIG WT [3] = target: T1, CtTrl1-LIG WT; test: EMSA; remark: listed apart in the source

B1: 3'exon-7nt (dsRNA)
RNA 1: AUCUGGA
RNA 2: AUCUGGA
modifications: 5'-phosphate; one strand end 5'-adenylylated (AppRNA) in the crystal
B1: binds (CtTrl1-LIG WT [1]).

AUCUGGAUUUUGCCAGACUGAAG (structured_RNA, 5'-phosphate; terminal phosphate at 3' end nucleotide (2'-P/3'-OH)) [ASL-4U]: binds (CtTrl1-LIG WT [2]); binds (CtTrl1-LIG S171A); binds (CtTrl1-LIG H170A). AUCUGGAUUUUGCCAGACUGAAG (structured_RNA, 5'-phosphate; terminal phosphate at 3' end nucleotide (2'-P/3'-OH)) [ASL-4U]: binds (CtTrl1-LIG K148N).

CUCUGGAUUUUGCCAGACUGAAG (structured_RNA, 5'-phosphate and terminal phosphate presumed as in ASL-4U) [ASL-4U-5C]: binds (CtTrl1-LIG WT [3]).
